Data on 17 molecules can be found in patent US20160264664A1 (Ablynx, published 2016).

For assay [1], the target named is T1, mouse P2X7 (mouse, UniProt Q9Z1M0 1-595).
T1 construct: on transfected CHO or Hek293 cells, or endogenous on Yac-1 cells; also called mP2X7; mouse purinoceptor P2X7
T1 sequence: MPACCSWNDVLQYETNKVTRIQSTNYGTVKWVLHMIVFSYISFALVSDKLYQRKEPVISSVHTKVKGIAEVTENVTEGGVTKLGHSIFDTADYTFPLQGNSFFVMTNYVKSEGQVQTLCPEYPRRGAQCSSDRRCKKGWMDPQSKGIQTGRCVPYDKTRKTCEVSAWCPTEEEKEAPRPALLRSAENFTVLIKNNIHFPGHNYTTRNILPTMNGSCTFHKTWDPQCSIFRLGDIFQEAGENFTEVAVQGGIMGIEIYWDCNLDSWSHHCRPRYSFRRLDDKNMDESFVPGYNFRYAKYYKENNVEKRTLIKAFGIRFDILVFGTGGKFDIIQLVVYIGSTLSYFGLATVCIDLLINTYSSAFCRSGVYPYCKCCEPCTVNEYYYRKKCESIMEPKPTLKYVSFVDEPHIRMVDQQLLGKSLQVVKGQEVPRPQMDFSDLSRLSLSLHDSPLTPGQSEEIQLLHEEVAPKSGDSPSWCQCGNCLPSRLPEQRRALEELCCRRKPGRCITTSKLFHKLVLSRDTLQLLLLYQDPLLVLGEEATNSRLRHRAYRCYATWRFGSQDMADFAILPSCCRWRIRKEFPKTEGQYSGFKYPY
Description: Table A-1 'P2X7 function'; screening on mP2X7-expressing cells.

The target of assay [2] is T1, mouse P2X7. Description: phage ELISA on fixed mP2X7-CHO vs untransfected CHO cells (minimally 2-fold). (In general: In an ELISA, binding on a coated surface is turned into a signal by an enzyme label.)
Description: (§1) Sub-confluent cells were rinsed with PBS and fixed using 4% paraformaldehyde in PBS for 10 minutes at RT. Fixed cells were washed three times with PBS, and blocked with 2% BSA in PBS for 2 hours. Following blocking, 10-fold diluted culture supernatant containing phage was added and incubated for 1 hour. Cell-bound phage was detected via mouse anti-M13-HRP-conjugate (GE Healthcare, Cat nr. E2886). Rat mAb Hano43 was used as positive control.
In assay [3] the target is T1, mouse P2X7. Description: phage ELISA on fixed mP2X7-CHO vs untransfected CHO cells.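 Also: phage culture supernatant diluted 10-fold, applied for 1 h to paraformaldehyde-fixed, BSA-blocked cells in 96-well plates, with bound phage read via HRP-linked anti-M13 antibody.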
Description: as §1
In a further assay the target is T2, mouse P2X7 mutant R151A (mouse, UniProt Q9Z1M0 1-595).
T2 construct: transiently transfected Hek293 cells
T2 sequence: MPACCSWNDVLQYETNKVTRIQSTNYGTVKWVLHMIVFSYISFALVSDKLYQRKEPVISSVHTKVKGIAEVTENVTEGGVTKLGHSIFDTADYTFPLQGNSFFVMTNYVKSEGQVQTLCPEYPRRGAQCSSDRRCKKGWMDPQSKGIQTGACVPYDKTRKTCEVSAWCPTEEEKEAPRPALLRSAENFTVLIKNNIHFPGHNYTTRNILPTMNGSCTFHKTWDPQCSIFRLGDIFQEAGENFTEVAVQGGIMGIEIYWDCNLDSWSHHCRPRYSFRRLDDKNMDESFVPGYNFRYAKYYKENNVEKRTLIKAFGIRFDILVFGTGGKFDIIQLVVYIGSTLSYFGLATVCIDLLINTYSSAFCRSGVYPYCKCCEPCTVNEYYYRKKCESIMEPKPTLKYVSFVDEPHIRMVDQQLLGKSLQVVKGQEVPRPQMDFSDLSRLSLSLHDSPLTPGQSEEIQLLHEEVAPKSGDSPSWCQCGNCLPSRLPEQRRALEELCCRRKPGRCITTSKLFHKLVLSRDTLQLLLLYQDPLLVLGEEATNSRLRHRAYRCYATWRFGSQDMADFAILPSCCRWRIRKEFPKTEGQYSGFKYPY
The assay is described as follows: flow cytometry, 1 µM Nanobody on transiently transfected Hek293 cells, normalised to Hano43 staining.

The target of a further assay is T3, human P2X4 (human, UniProt Q99571 1-388).
T3 construct: whole, on cells; also called hP2X4
T3 sequence (looked up): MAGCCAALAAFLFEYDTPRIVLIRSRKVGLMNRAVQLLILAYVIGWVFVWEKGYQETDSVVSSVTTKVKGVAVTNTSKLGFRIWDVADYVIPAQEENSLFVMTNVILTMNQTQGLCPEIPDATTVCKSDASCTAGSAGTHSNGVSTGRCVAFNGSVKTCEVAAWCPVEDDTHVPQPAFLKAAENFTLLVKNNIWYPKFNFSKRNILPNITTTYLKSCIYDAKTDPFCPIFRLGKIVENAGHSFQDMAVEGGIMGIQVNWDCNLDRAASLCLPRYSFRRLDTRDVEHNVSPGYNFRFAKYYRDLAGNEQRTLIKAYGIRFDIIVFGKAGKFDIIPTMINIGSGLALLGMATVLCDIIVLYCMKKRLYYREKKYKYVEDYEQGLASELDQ
The assay is described as follows: flow cytometry, Nanobody pre-incubated with anti-Myc-FITC. In general terms: A flow cytometer gives signals particle by particle.

In the next assay the target is T4, human P2X7 (human, UniProt Q99572 1-595).
T4 construct: on transfected Hek293 cells; also called hP2X7
T4 sequence: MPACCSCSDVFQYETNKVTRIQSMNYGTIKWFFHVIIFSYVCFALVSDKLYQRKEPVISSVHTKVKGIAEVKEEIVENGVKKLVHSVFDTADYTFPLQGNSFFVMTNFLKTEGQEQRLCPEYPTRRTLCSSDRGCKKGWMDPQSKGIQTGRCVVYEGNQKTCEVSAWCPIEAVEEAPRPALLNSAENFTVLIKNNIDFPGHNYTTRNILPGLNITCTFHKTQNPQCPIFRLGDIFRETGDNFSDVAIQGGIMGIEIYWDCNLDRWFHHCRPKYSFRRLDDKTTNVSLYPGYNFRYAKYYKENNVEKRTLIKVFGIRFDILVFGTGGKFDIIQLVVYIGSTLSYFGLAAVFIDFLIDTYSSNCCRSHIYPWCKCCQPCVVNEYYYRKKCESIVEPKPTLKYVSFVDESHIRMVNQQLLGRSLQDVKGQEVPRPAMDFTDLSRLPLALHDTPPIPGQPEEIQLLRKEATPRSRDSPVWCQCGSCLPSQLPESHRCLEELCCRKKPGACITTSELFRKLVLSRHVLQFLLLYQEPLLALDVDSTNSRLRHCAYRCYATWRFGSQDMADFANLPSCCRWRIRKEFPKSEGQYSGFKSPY
The description is as above.

Bounds are passed on as bounds.

Description for mouse P2X7 mutant R151A: For flow cytometric assays, detection of Nanobodies was performed via anti-Myc and subsequent goat anti-mouse-PE conjugate, while an estimation of P2X7 expression densities was obtained via staining with rat monoclonal Hano43 followed by secondary anti-rat-PE conjugate.

B1: P2X7PMP18D12 (VHH)
VHH: EVQLVESGGDLVQAGGSLKLSCVVSGVTFDDGTIGWFRQAPGKEREGIACISRVDGTTYYRDSVKGRFTVSSDSAKTTVNLQMNSLKPEDTAVYYCAADYASLCTIETGYGSLYDYWGRGTQVTVSS
notes: family 6; on phage or c-myc/His6-tagged in assays
With B1, the binding result with mouse P2X7 [1] is “binds”.

B2: P2X7PMP4B3 (VHH)
VHH: EVQLVESGGDLVQAGGSLKLSCVVSGVTFDDGTIGWFRQAPGKEREGIACISRVDGTTYYRDSVKGRFTVSSDSAKTTVNLQMNSLKPEDTAVYYCAADYASLCTIETGYGSLYDYWGKGTQVTVSS
notes: as for B1
Turning to B2, the binding result in the assay with mouse P2X7 [1] is “binds”.

B3: P2X7PMP15C7 (VHH)
VHH: EMQLVESGGGWVQAGGSLRLSCASSGSIFSAGAMGWYRQPAGKQRELVADITLGGSTNYADSVKGRFTISRDNAKNAVFLQMNSLKPEDTAVYYCNGLINTFARKIPRYAWGQGTQVTVSS
notes: family 28; on phage or c-myc/His6-tagged in assays
B3: in the assay with mouse P2X7 [1], the binding result is reported as “binds”.

B4: P2X7PMP16G3 (VHH)
VHH: EVQLVESGGGLVQAGGSLRLSCAASGNDFARFSIDAMGWYRQAPGKQRELVATVTEDGTKNYADSVKGRATISRDDANNSMYLEMNTLKPEDTAVYYCKMGGLIDGAAPYEFWGRGTQVTVSS
notes: family 27; on phage or c-myc/His6-tagged in assays
Turning to B4, the binding result with mouse P2X7 [1] is reported as “binds”.

B5: P2X7PMP20H9 (VHH)
VHH: EVQLVESGGRVMQTGGSLRLSCAASGHTFNDYSMGWFRQAPGKELEFLAGINWSGMSTWYADSVKDRFTISRDNNKNTVFLQMNSLEPGDTAVYYCAARQWISTIILTAPSQYDYWGQGTQVTVSS
notes: family 24; on phage or c-myc/His6-tagged in assays
Turning to B5, the binding result in the assay with mouse P2X7 [1] was “binds”.

B6: P2X7PMP4G4 (VHH)
VHH: EVQLMESGGGLVQAGGPLRLSCAASGRTVSDYGMGWFRQAPGKEREFVASINWSGTYTRYIDSVEGRFTISRDNTENTLYLQMNNLKAEDTAVYYCAYFLGPNWYSDYGRPSSYDFYGQGTQVTVSS
notes: family 4; on phage or c-myc/His6-tagged in assays
As to B6, the binding result with mouse P2X7 [2] is listed as “binds”.

B7: P2X7PMP19A7 (VHH)
VHH: KVQLVESGGGLVQAGGSLRLSCAASGRTVSDYGMGWFRQAPGKLREFVASINWSGIYTRYIDSVEGRFTISRDNTKNTLYLQMNNLRAEDTAVYYCAYFLGPNWYSNYGRPSSYDFYGQGTQVTVSS
notes: as for B6
Consider B7, for which, in the assay with mouse P2X7 [2], the binding result was “binds”.

B8: P2X7PMP20B8 (VHH)
VHH: EVQLVESGGGLVQAGGSLRLSCAASGRTVSDYGMGWFRQAPGKECEFVASINWSGTYTRYIDSVEGRFTISRDNTENTLYLQMNNLKAEDTAVYYCAYFLGPNWYSDYGRPSSYDFYGQGTQVTVSS
notes: as for B6
B8: the binding result in the assay with mouse P2X7 [2] is “binds”.

B9: P2X7PMP19D12 (VHH)
VHH: EVQLVESGGGLVQAGGSLRLSCAASGRTVSDYGMGWFRQAPGKLREFVASINWSGIYTRYIDSVEGRFTISRDNTKNTLYLQMNNLKAEDTAVYYCAYFLGPNWYSNYGRPSSYGFYGQGTQVTVSS
notes: as for B6
B9: in the assay with mouse P2X7 [2], the binding result was “binds”.

B10: P2X7PMP13F4 (VHH)
VHH: EVQLVESGGGLVQSGGSLRLSCAGSGFSYYIIGWFRQAPGKEREEVSCIRVTDGSTYHTNSVKGRFTMSRDNAENTVYLQMNSLKPEDTAVYSCATECQRWAYPNRIGARGQGTQVTVSS
notes: family 12; on phage or c-myc/His6-tagged in assays
As for B10, in the assay with mouse P2X7 [2], the binding result was “binds”.

B11: P2X7PMP19H4 (VHH)
VHH: EVQLVESGGGLVQAGGSLRLSCVASGRTLSTAVMGWFRQAPGKERGLVAMISWSGSMTYYAKSVKGRFTISRDNAKNTMYLQMNSLKPEDTAVYYCAADMGGGPPDGDAMPRLSSGMDYWGKGTLVTVSS
notes: family 26; on phage or c-myc/His6-tagged in assays
Take B11: in the assay with mouse P2X7 [1], the binding result is given as “binds”.

B12: P2X7PMP6D7 (VHH)
VHH: EVQLVESGGGLVQAGGSLRLSCAASGRTFSSLAMGWLRQAPGKEREFVSGISRGGTSTYYADSVKGRLTISRDNAKNTMYLQMNSLKPEDTAVYYCAGSPVLSIVLDTRGLEYWGQGTQVTVSS
notes: family 7; on phage or c-myc/His6-tagged in assays
As for B12, in the assay with mouse P2X7 [2], the binding result is on record as “binds”.

B13: P2X7PMP7E8 (VHH)
VHH: EVQLVESGGGLVQAGGSLRLSCAASGRTFSSSPVGWFRQAPGKERDFVATISWNGVDTHYLDSVKGRFTISRDNALNTVHLQMHILKPEDTALYYCAASTSGSAYLPYRVYQYDSWGQGTQVTVSS
notes: family 8; on phage or c-myc/His6-tagged in assays
For the molecule B13, the binding result in the assay with mouse P2X7 [2] is “binds”.

B14: P2X7PMP7F5 (VHH)
VHH: EVQLVESGGGLVQAGGSLRLSCAASGRTFSSSPVGWFRQAPGKERDFVATISWNGVDTHYLDSVKGRFTISRDNALNTVHLQMHILKPEDTALYYCAASTSGSAYLPYRVHQYDSWGQGTQVTVSS
notes: as for B13
On to B14, for which the binding result in the assay with mouse P2X7 [2] is “binds”.

B15: P2X7PMP16F5 (VHH)
VHH: EVQLVESGGGLVQAGGSLRLSCAASGPTTFGRYTMGWFRQAPGREREFVAAISWIGGRTYYVDVVKGRFTISRDNAKKMVYLQMNSLKPDDTAVYHCAAAFQALGSPREYDYWGQGTQVTVSS
notes: family 29; on phage or c-myc/His6-tagged in assays
Regarding B15, in the assay with mouse P2X7 [1], the binding result is reported as “binds”.

B16: P2X7PMP6B7 (VHH)
VHH: EVQLVESGGGLVQAGGSLRLSCVVSGRTFSAMGWFRQAPGKEREFVATVGWNPMNSYYGDSVKGRFTIFRDNAKNTVYLQMNSLKPEDTAVYYCAGSGSLLDVTSEAVYTDWGQGTQVTVSS
notes: family 16; on phage or c-myc/His6-tagged in assays
B16: the “Fold Cho P2X7/wt (phage ELISA)” value with mouse P2X7 [3] was 24 fold. Also, the “reduction of binding against WT mP2X7” value with mouse P2X7 mutant R151A is over 90%. The binding result with human P2X4 and with human P2X7 was “no binding (tested: 147 nM)” in each case.

B17: P2X7PMP13E9 (VHH)
VHH: EVQLVESGGGLVQPGESLRLSCTASRFDLDYYDIAWFRQAPGKEREGVSCSFTNDGSTYYADSVKGRFTMSRNNDHRTVYLQMTSLQPEDTAVYTCAVGPLTRRRQCVPGDFSMDFWGEGTLVTVSS
notes: family 22; on phage or c-myc/His6-tagged in assays
Turning to B17, the binding result with mouse P2X7 [2] is recorded as “binds”.
